Laboratory results from patent US20250332277A1, “PROTEIN TYROSINE KINASE 7 ANTIBODIES AND ANTIBODY-DRUG CONJUGATES” (Eli Lilly and Company, priority 2024, published 2025).

Target: human PTK-7 on cells (OV90-PTK-7, NCI-H446, OVCAR-3) (human) (UniProt Q13308)
Test: cell-based or functional assay

human PTK-7 on cells (OV90-PTK-7, NCI-H446, OVCAR-3) (human), sequence (Q13308 31-1070 limits assumed): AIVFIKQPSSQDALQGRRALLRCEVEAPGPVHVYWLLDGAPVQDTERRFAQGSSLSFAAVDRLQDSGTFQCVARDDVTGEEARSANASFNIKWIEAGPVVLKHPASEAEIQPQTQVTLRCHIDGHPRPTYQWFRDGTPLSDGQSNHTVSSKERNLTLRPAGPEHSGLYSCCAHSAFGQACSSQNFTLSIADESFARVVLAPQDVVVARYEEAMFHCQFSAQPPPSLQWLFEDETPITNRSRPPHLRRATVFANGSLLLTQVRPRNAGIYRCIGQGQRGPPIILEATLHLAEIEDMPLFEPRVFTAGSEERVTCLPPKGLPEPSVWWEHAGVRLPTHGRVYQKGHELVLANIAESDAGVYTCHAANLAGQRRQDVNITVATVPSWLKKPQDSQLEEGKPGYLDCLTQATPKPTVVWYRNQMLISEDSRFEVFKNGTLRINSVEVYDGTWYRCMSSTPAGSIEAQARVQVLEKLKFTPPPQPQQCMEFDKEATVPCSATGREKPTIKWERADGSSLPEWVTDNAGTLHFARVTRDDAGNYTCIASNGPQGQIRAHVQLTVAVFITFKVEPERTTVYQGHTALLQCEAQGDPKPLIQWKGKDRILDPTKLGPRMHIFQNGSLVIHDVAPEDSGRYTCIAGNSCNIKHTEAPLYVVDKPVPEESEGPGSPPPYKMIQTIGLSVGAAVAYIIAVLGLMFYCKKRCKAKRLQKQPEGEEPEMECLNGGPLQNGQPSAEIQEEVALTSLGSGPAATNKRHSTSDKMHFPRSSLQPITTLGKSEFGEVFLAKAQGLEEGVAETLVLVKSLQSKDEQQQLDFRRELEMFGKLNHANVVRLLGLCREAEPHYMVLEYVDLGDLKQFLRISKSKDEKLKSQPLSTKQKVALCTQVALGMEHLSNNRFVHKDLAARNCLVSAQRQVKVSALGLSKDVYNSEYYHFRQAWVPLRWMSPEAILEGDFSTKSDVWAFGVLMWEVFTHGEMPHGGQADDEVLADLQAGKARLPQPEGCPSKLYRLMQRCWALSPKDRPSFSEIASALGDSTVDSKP

B1: Cofetuzumab-Pelidotin (protein, INN chains, looked up)
VH: QVQLVQSGPEVKKPGASVKVSCKASGYTFTDYAVHWVRQAPGKRLEWIGVISTYNDYTYNNQDFKGRVTMTRDTSASTAYMELSRLRSEDTAVYYCARGNSYFYALDYWGQGTSVTVSS
VL: EIVLTQSPATLSLSPGERATLSCRASESVDSYGKSFMHWYQQKPGQAPRLLIYRASNLESGIPARFSGSGSGTDFTLTISSLEPEDFAVYYCQQSNEDPWTFGGGTKLEIK
modifications: pelidotin auristatin payload
B1 gave a Cytotoxicity IC50, OV90-PTK-7 cells (CellTiter-Glo, 5 days) of 0.0331 pM and a Cytotoxicity IC50, OVCAR-3 cells (CellTiter-Glo, 7 days) of 2.53 nM.
